Residue numbers refer to the chain shown, from its start. Numbers in names are those of the source. Each block holds one binder with its values, some of them ahead of it.
What was measured:
[1] = target: aRSV-Fab (Fab fragment of anti-RSV monoclonal IgG Palivizumab, Synagis); test: affinity chromatography, peptide on aRSV-Fab-immobilised column, linear pH gradient 5.5 to 2.5, pH at elution peak top
[2] = target: aRSV-Fab (Fab fragment of anti-RSV monoclonal IgG Palivizumab, Synagis); test: SPR (Biacore 3000), aRSV-Fab on CM5 chip, peptide flowed, 25 C, pH 7.4, 1:1 fit
[3] = target: aRSV-Fab (Fab fragment of anti-RSV monoclonal IgG Palivizumab, Synagis); test: affinity chromatography, peptide on aRSV-Fab-immobilised column, linear pH gradient, pH at elution peak top
[4] = target: aRSV-Fab (Fab fragment of anti-RSV monoclonal IgG Palivizumab, Synagis); test: affinity chromatography, aRSV-Fab on LB5t-T16H.4d-immobilised cellulose carrier, linear pH gradient 5.0 to 2.4, pH at elution peak top

Dissociation pH [1]: 3.6 pH | Ka [2]: 1.44e+07 M⁻¹ | koff [2]: 0.0265 s⁻¹ | kon [2]: 381000 M⁻¹ s⁻¹
B1: LB5t-T16D.1d (designed binder)
chain: GPLGSEQVTIKENIYFEDGTVQDATFKGTFAEATAEAYRYADLLSKEHGKYTADLEDGGYTINIRFAG

Dissociation pH [3]: 3.65 pH
B2: LB5t-T16L.1d (designed binder)
chain: B1 chain with D23L

Dissociation pH [1]: 3.9 pH | Ka [2]: 6.7e+06 M⁻¹ | koff [2]: 0.0485 s⁻¹ | kon [2]: 325000 M⁻¹ s⁻¹
B3: LB5t-Q15H.1d (designed binder)
chain: B1 chain with Q22H, D23T

Dissociation pH [1]: 3.9 pH | Ka [2]: 1.08e+06 M⁻¹ | koff [2]: 0.0738 s⁻¹ | kon [2]: 80000 M⁻¹ s⁻¹
B4: LB5t-A17H.1d (designed binder)
chain: B1 chain with D23T, A24H

Dissociation pH [1]: 3.65 pH | Ka [2]: 1.26e+07 M⁻¹ | koff [2]: 0.0296 s⁻¹ | kon [2]: 373000 M⁻¹ s⁻¹
B5: LB5t-T18Q.1d (designed binder)
chain: B1 chain with D23T, T25Q

Dissociation pH [1]: 3.85 pH | Ka [2]: 6.79e+06 M⁻¹ | koff [2]: 0.0467 s⁻¹ | kon [2]: 317000 M⁻¹ s⁻¹
B6: LB5t-T18D.1d (designed binder)
chain: B1 chain with D23T, T25D

Dissociation pH [1]: 3.9 pH | Ka [2]: 1.17e+07 M⁻¹ | koff [2]: 0.036 s⁻¹ | kon [2]: 422000 M⁻¹ s⁻¹
B7: LB5t-T18H.1d (designed binder)
chain: B1 chain with D23T, T25H

Dissociation pH [1]: 3.6 pH | Ka [2]: 1.87e+07 M⁻¹ | koff [2]: 0.0225 s⁻¹ | kon [2]: 421000 M⁻¹ s⁻¹
B8: LB5t-T16A.1d (designed binder)
chain: B1 chain with D23A

Dissociation pH [1]: 3.9 pH | Ka [2]: 2.69e+07 M⁻¹ | koff [2]: 0.0159 s⁻¹ | kon [2]: 428000 M⁻¹ s⁻¹
B9: LB5t-T16H.1d (designed binder)
chain: B1 chain with D23H

Elution pH [4]: 3.66 pH
B10: LB5t-T16H.4d (designed binder)
chain: KEETPETPETDSEEQVTIKENIYFEDGTVQHATFKGTFAEATAEAYRYADLLSKEHGKYTADLEDGGYTINIRFAGKEKTPEEPKEQVTIKENIYFEDGTVQHATFKGTFAEATAEAYRYADLLSKEHGKYTADLEDGGYTINIRFAGKEKTPEEPKEQVTIKENIYFEDGTVQHATFKGTFAEATAEAYRYADLLSKEHGKYTADLEDGGYTINIRFAGKEKTPEEPKEQVTIKENIYFEDGTVQHATFKGTFAEATAEAYRYADLLSKEHGKYTADLEDGGYTINIRFAGKKVDEKPEEC

Dissociation pH [3]: 2.7 pH
B11: LB1t-Wild.1d (protein)
chain: VTIKANLIFANGSTQTAEFKGTFEKATSEAYAYADTLKKDNGEYTVDVADKGYTLNIKFA

Dissociation pH [3]: 2.95 pH
B12: LB1t-E18D.1d (designed binder)
chain: B11 chain with E18D

Source: patent publication US20180016306A1
